Patent US20210388087A1 (Chugai, published 2021)
Substitutions are numbered along the chain they refer to. In names and notes the source's numbering stands.

B1: H183/L072 VH F27A (antibody, name in Kabat numbering, V domains shown)
VH: QVQLVESGGGLVQPGRSLRLSCAASGATFSNAWMHWVRQAPGKGLEWVAQIKDKGNAYAAYYAPSVKGRFTISRDDSKNSIYLQMNSLKTEDTAVYYCHYVHYASASTVLPAFGVDAWGQGTTVTVSS
VL: DIVMTQSPLSLPVTPGEPASISCQASQELVHMNRNTYLHWYQQKPGQAPRLLIYKVSNRFPGVPDRFSGSGSGTDFTLKISRVEAEDVGVYYCAQGTSVPFTFGQGTKLEIK
B2: H183/L072 VH A32Y (antibody, name in Kabat numbering, V domains shown)
VH: B1 VH with A27F, A32Y
VL: B1 VL
B3: H183/L072 VH A32N (antibody, name in Kabat numbering, V domains shown)
VH: B1 VH with A27F, A32N
VL: B1 VL
B4: H183/L072 VH A32H (antibody, name in Kabat numbering, V domains shown)
VH: B1 VH with A27F, A32H
VL: B1 VL
B5: H183/L072 VH A32V (antibody, name in Kabat numbering, V domains shown)
VH: B1 VH with A27F, A32V
VL: B1 VL
B6: H183/L072 VH A32I (antibody, name in Kabat numbering, V domains shown)
VH: B1 VH with A27F, A32I
VL: B1 VL
B7: H183/L072 VH A32S (antibody, name in Kabat numbering, V domains shown)
VH: B1 VH with A27F, A32S
VL: B1 VL
B8: H183/L072 VH A54Q (antibody, name in Kabat numbering, V domains shown)
VH: B1 VH with A27F, A57Q
VL: B1 VL
B9: H183/L072 VH A54F (antibody, name in Kabat numbering, V domains shown)
VH: B1 VH with A27F, A57F
VL: B1 VL
B10: H183/L072 VH A32K (antibody, name in Kabat numbering, V domains shown)
VH: B1 VH with A27F, A32K
VL: B1 VL
B11: H183/L072 VH A32L (antibody, name in Kabat numbering, V domains shown)
VH: B1 VH with A27F, A32L
VL: B1 VL
B12: H183/L072 VH A54L (antibody, name in Kabat numbering, V domains shown)
VH: B1 VH with A27F, A57L
VL: B1 VL
B13: H183/L072 VH A32E (antibody, name in Kabat numbering, V domains shown)
VH: B1 VH with A27F, A32E
VL: B1 VL
B14: H183/L072 VH A32M (antibody, name in Kabat numbering, V domains shown)
VH: B1 VH with A27F, A32M
VL: B1 VL
B15: H183/L072 VH A54E (antibody, name in Kabat numbering, V domains shown)
VH: B1 VH with A27F, A57E
VL: B1 VL
B16: H183/L072 VH A54W (antibody, name in Kabat numbering, V domains shown)
VH: B1 VH with A27F, A57W
VL: B1 VL
B17: H183/L072 VH A54N (antibody, name in Kabat numbering, V domains shown)
VH: B1 VH with A27F, A57N
VL: B1 VL
B18: H183/L072 VH A32R (antibody, name in Kabat numbering, V domains shown)
VH: B1 VH with A27F, A32R
VL: B1 VL
B19: H183/L072 VH A54M (antibody, name in Kabat numbering, V domains shown)
VH: B1 VH with A27F, A57M
VL: B1 VL
B20: H183/L072 VH A54H (antibody, name in Kabat numbering, V domains shown)
VH: B1 VH with A27F, A57H
VL: B1 VL
B21: H183/L072 VH A32T (antibody, name in Kabat numbering, V domains shown)
VH: B1 VH with A27F, A32T
VL: B1 VL
B22: H183/L072 VH A54V (antibody, name in Kabat numbering, V domains shown)
VH: B1 VH with A27F, A57V
VL: B1 VL
B23: H183/L072 VH A54I (antibody, name in Kabat numbering, V domains shown)
VH: B1 VH with A27F, A57I
VL: B1 VL
B24: H183/L072 VH A32F (antibody, name in Kabat numbering, V domains shown)
VH: B1 VH with A27F, A32F
VL: B1 VL
B25: H183/L072 VH A54T (antibody, name in Kabat numbering, V domains shown)
VH: B1 VH with A27F, A57T
VL: B1 VL
B26: H183/L072 VH A54S (antibody, name in Kabat numbering, V domains shown)
VH: B1 VH with A27F, A57S
VL: B1 VL
B27: H183/L072 VH A54D (antibody, name in Kabat numbering, V domains shown)
VH: B1 VH with A27F, A57D
VL: B1 VL
B28: H183/L072 VH A32Q (antibody, name in Kabat numbering, V domains shown)
VH: B1 VH with A27F, A32Q
VL: B1 VL
B29: H183/L072 VH A54R (antibody, name in Kabat numbering, V domains shown)
VH: B1 VH with A27F, A57R
VL: B1 VL
B30: H183/L072 VH A54K (antibody, name in Kabat numbering, V domains shown)
VH: B1 VH with A27F, A57K
VL: B1 VL
B31: H183/L072 VH A32G (antibody, name in Kabat numbering, V domains shown)
VH: B1 VH with A27F, A32G
VL: B1 VL
B32: H183/L072 VL Y32N (antibody, name in Kabat numbering, V domains shown)
VH: B1 VH with A27F
VL: B1 VL with Y37N
B33: H183/L072 VL Y32Q (antibody, name in Kabat numbering, V domains shown)
VH: B1 VH with A27F
VL: B1 VL with Y37Q
B34: H183/L072 VL Y32H (antibody, name in Kabat numbering, V domains shown)
VH: B1 VH with A27F
VL: B1 VL with Y37H
B35: H183/L072 VL Y32D (antibody, name in Kabat numbering, V domains shown)
VH: B1 VH with A27F
VL: B1 VL with Y37D
B36: H183/L072 VL Y32E (antibody, name in Kabat numbering, V domains shown)
VH: B1 VH with A27F
VL: B1 VL with Y37E
B37: H183/L072 VL Y32T (antibody, name in Kabat numbering, V domains shown)
VH: B1 VH with A27F
VL: B1 VL with Y37T
B38: H183/L072 VL Y32K (antibody, name in Kabat numbering, V domains shown)
VH: B1 VH with A27F
VL: B1 VL with Y37K
B39: H183/L072 VL Y32G (antibody, name in Kabat numbering, V domains shown)
VH: B1 VH with A27F
VL: B1 VL with Y37G
B40: H183/L072 VL Y32L (antibody, name in Kabat numbering, V domains shown)
VH: B1 VH with A27F
VL: B1 VL with Y37L
B41: H183/L072 VL Y32S (antibody, name in Kabat numbering, V domains shown)
VH: B1 VH with A27F
VL: B1 VL with Y37S
B42: H183/L072 VL Y32A (antibody, name in Kabat numbering, V domains shown)
VH: B1 VH with A27F
VL: B1 VL with Y37A

These binders were tested against T1, Human CD137 ECD (human) (assay: single mutant vs template dBBDu183H).
T1 construct: also called 4-1BB
T1 sequence (chain, as listed by the source limits assumed): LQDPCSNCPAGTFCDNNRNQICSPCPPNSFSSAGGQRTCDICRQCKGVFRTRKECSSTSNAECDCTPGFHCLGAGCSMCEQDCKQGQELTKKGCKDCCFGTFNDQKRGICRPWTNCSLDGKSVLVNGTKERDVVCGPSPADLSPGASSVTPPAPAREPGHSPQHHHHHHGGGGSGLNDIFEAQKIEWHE
For B1, the “fold change of affinity” value was 0.3 fold. With B2 the “fold change of affinity” value was 0 fold. In the case of B3, the “fold change of affinity” value is reported as 0.3 fold. With B4 the “fold change of affinity” value was 0.2 fold. For B5, the “fold change of affinity” value was 3.7 fold. With B6 the “fold change of affinity” value was 2.2 fold. B7 was tested, and the “fold change of affinity” value was 0.9 fold. In the case of B8, the “fold change of affinity” value is reported as 1 fold. B9 was tested, and the “fold change of affinity” value was 0.9 fold. B10 was tested, and the “fold change of affinity” value was 1 fold. With B11 the “fold change of affinity” value was 1.2 fold. B12 was tested, and the “fold change of affinity” value was 1 fold. With B13 the “fold change of affinity” value was 0.4 fold. In the case of B14, the “fold change of affinity” value is reported as 1.6 fold. With B15 the “fold change of affinity” value was 1 fold. In the case of B16, the “fold change of affinity” value is reported as 0.8 fold. B17 was tested, and the “fold change of affinity” value was 1.1 fold. In the case of B18, the “fold change of affinity” value is reported as 0.3 fold. With B19 the “fold change of affinity” value was 1 fold. For B20, the “fold change of affinity” value was 1 fold. B21 was tested, and the “fold change of affinity” value was 3.9 fold. B22 was tested, and the “fold change of affinity” value was 0.5 fold. In the case of B23, the “fold change of affinity” value is reported as 0.5 fold. In the case of B24, the “fold change of affinity” value is reported as 0.1 fold. In the case of B25, the “fold change of affinity” value is reported as 0.3 fold. With B26 the “fold change of affinity” value was 0.9 fold. For B27, the “fold change of affinity” value was 1.1 fold. With B28 the “fold change of affinity” value was 1.6 fold. B29 was tested, and the “fold change of affinity” value was 0.9 fold. In the case of B30, the “fold change of affinity” value is reported as 0.9 fold. In the case of B31, the “fold change of affinity” value is reported as 0.1 fold.

Biological target: T2, Human CD3eg linker (human)
T2 construct: Single-chain construct; also called recombinant human CD3
T2 chain: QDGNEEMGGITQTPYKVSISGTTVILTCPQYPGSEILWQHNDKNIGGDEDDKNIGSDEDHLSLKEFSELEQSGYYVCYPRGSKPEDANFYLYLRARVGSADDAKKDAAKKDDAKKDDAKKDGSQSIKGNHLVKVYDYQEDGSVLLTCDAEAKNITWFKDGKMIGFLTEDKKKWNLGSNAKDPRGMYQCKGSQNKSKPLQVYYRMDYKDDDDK
Experiment: SPR; fold vs parent H183/L072
B32 was tested, and the “fold change of affinity” value was 0 fold. B33 was tested, and the “fold change of affinity” value was 0 fold. B34 was tested, and the “fold change of affinity” value was 0 fold. For B35, the “fold change of affinity” value was 0 fold. In the case of B36, the “fold change of affinity” value is reported as 0 fold. In the case of B37, the “fold change of affinity” value is reported as 0 fold. In the case of B38, the “fold change of affinity” value is reported as 0 fold. In the case of B39, the “fold change of affinity” value is reported as 0 fold. With B40 the “fold change of affinity” value was 0 fold. With B41 the “fold change of affinity” value was 0 fold. With B42 the “fold change of affinity” value was 0 fold.
